Positions of bridges follow the written chain, without caps; N, C: chain ends. No end group written: not given here.
target: T1, FLAG-tagged ACE-2 target (human, UniProt Q9BYF1 18-740); experiment: phage ELISA on FLAG-ACE-2
T1 construct: range 1-740; obtained from Human Genome Sciences, Inc; also called FLAG-ACE-2; tagged human ACE-2; not shown: FLAG tag
Procedure: Phage enriched from the third round of selection were screened by ELISA for strong ACE-2 binders. Immulon 2 96-well plates (Dynatech) were coated with streptavidin for 1 hour at 37° C. and subsequently coated with anti-FLAG antibody for 1 hour at room temperature. Half of the plates were further coated with FLAG-ACE-2 as the target plates, and the other half of the plates were coated with FLAG peptide as background plates. The amount of each protein or peptide coated was 100 ng per well. The coated plates were then incubated for 1 hour at room temperature with 1:2 diluted overnight phage cultures that were made by inoculating phage from individual plaques into bacterial host cells. After being washed 7 times with PBST, the plates were incubated with HRP-conjugated anti-M13 antibody (Pharmacia) for 1 hour at room temperature, washed 5 times, developed with TMB peroxidase substrate solution (Kirkegaad & Perry Laboratories, Gaithersburg, Md.), and read at 630 nm on an ELISA plate reader.

T1 sequence (Q9BYF1 18-740 limits assumed): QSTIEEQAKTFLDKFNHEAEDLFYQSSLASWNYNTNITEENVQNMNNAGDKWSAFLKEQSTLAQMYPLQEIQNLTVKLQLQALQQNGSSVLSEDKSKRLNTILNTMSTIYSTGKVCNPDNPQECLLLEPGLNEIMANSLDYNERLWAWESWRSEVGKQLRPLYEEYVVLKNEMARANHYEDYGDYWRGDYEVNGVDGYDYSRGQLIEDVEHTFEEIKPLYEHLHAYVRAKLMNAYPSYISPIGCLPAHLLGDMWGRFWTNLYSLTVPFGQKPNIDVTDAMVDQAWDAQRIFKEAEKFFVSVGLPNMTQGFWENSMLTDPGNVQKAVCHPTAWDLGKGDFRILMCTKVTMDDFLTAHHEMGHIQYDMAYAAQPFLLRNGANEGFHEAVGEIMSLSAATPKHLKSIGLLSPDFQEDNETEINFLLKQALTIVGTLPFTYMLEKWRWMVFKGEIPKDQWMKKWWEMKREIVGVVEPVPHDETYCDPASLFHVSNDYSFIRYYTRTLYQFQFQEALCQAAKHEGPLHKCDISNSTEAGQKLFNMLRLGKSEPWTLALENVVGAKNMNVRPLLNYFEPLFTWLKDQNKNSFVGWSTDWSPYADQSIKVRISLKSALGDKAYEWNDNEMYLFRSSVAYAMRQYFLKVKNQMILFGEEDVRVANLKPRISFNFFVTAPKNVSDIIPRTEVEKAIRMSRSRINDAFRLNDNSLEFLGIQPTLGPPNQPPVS

Binder	binding result
NPECGALFCMEF (not fully specified (bridges); cysteine pairing not given here) [ACE-2 binding polypeptide NPECGALFCMEF]	binds
KFECMPSSLFCVDF (not fully specified (bridges); cysteine pairing not given here) [ACE-2 binding polypeptide KFECMPSSLFCVDF]	binds
YEDCIGHALFCMTF (not fully specified (N-terminus, C-terminus, bridges); cysteine pairing not given here) [ACE-2 binding polypeptide YEDCIGHALFCMTF]	binds
DDHCEWASYWKWDLCLHD (not fully specified (N-terminus, C-terminus, bridges); cysteine pairing not given here) [ACE-2 binding polypeptide DDHCEWASYWKWDLCLHD]	binds
NRECHALFCMDF (disulfide 4-9 (inferred); not fully specified (N-terminus, C-terminus)) [ACE-2 binding polypeptide NRECHALFCMDF]	binds
LYECEWKQFGPVEMCLNF (not fully specified (bridges); cysteine pairing not given here) [ACE-2 binding polypeptide LYECEWKQFGPVEMCLNF]	binds
DDVCYSLIMADYCLDF (not fully specified (bridges); cysteine pairing not given here) [ACE-2 binding polypeptide DDVCYSLIMADYCLDF]	binds
DDDCMMLPLTMFCFDF (not fully specified (bridges); cysteine pairing not given here) [ACE-2 binding polypeptide DDDCMMLPLTMFCFDF]	binds
HIECEEWGYWCIEM (not fully specified (bridges); cysteine pairing not given here) [ACE-2 binding polypeptide HIECEEWGYWCIEM]	binds
YNFCMLIGERDYCLDF (not fully specified (bridges); cysteine pairing not given here) [ACE-2 binding polypeptide YNFCMLIGERDYCLDF]	binds
DQNCFAMYCFEF (not fully specified (N-terminus, C-terminus, bridges); cysteine pairing not given here) [ACE-2 binding polypeptide DQNCFAMYCFEF]	binds
NLDCIYLQNHSYCFDF (not fully specified (bridges); cysteine pairing not given here) [ACE-2 binding polypeptide NLDCIYLQNHSYCFDF]	binds
GGQCGTSYLFCIDF (not fully specified (bridges); cysteine pairing not given here) [ACE-2 binding polypeptide GGQCGTSYLFCIDF]	binds
NADCEWVNFNHVDLCMWN (not fully specified (bridges); cysteine pairing not given here) [ACE-2 binding polypeptide NADCEWVNFNHVDLCMWN]	binds
WEDCLWIGMMCVEF (not fully specified (bridges); cysteine pairing not given here) [ACE-2 binding polypeptide WEDCLWIGMMCVEF]	binds
EGNCFLIGPWCFEF (not fully specified (N-terminus, C-terminus, bridges); cysteine pairing not given here) [ACE-2 binding polypeptide EGNCFLIGPWCFEF]	binds
FHDCSWGPWGPWEICTRL (not fully specified (bridges); cysteine pairing not given here) [ACE-2 binding polypeptide FHDCSWGPWGPWEICTRL]	binds
GSDCEWVNFTMFQMCISN (not fully specified (bridges); cysteine pairing not given here) [ACE-2 binding polypeptide GSDCEWVNFTMFQMCISN]	binds
SNDCVWLQFWGGDMCFLP (not fully specified (bridges); cysteine pairing not given here) [ACE-2 binding polypeptide SNDCVWLQFWGGDMCFLP]	binds
PNQCGVDIWALFCVDF (not fully specified (bridges); cysteine pairing not given here) [ACE-2 binding polypeptide PNQCGVDIWALFCVDF]	binds
SDYCVGNNAVTYCFDF (not fully specified (bridges); cysteine pairing not given here) [ACE-2 binding polypeptide SDYCVGNNAVTYCFDF]	binds
AWDCEWNLFDSTFFCPGF (not fully specified (bridges); cysteine pairing not given here) [ACE-2 binding polypeptide AWDCEWNLFDSTFFCPGF]	binds

The next lines start with the values.

binding result	Binder
binds	FSPCKALRHSPWWVCPSG (not fully specified (N-terminus, C-terminus, bridges); cysteine pairing not given here) [ACE-2 binding polypeptide FSPCKALRHSPWWVCPSG]
binds	YFACTNNDSYLFCLDF (not fully specified (bridges); cysteine pairing not given here) [ACE-2 binding polypeptide YFACTNNDSYLFCLDF]
binds	DNLCMSGGSFDYCFDF (not fully specified (bridges); cysteine pairing not given here) [ACE-2 binding polypeptide DNLCMSGGSFDYCFDF]
binds	NWNCLGTNELQFCLDF (not fully specified (bridges); cysteine pairing not given here) [ACE-2 binding polypeptide NWNCLGTNELQFCLDF]
binds	HLDCYNLVDNMFCFDF (not fully specified (bridges); cysteine pairing not given here) [ACE-2 binding polypeptide HLDCYNLVDNMFCFDF]
binds	YDNCLGLANLNFCFDF (not fully specified (N-terminus, C-terminus, bridges); cysteine pairing not given here) [ACE-2 binding polypeptide YDNCLGLANLNFCFDF]
binds	FDDCQTSWFQGFWLCIDD (not fully specified (bridges); cysteine pairing not given here) [ACE-2 binding polypeptide FDDCQTSWFQGFWLCIDD]
binds	DFGCNAMFCVEF (not fully specified (bridges); cysteine pairing not given here) [ACE-2 binding polypeptide DFGCNAMFCVEF]
binds	NHHCLEFSSFEYCFDF (not fully specified (bridges); cysteine pairing not given here) [ACE-2 binding polypeptide NHHCLEFSSFEYCFDF]
binds	YSGCADMYMFCIDF (not fully specified (bridges); cysteine pairing not given here) [ACE-2 binding polypeptide YSGCADMYMFCIDF]
binds	DDVCENADFAWLGWCMHF (not fully specified (bridges); cysteine pairing not given here) [ACE-2 binding polypeptide DDVCENADFAWLGWCMHF]
binds	DDYCFNISSYSYCFDF (not fully specified (bridges); cysteine pairing not given here) [ACE-2 binding polypeptide DDYCFNISSYSYCFDF]
binds	DDKCFGWAHFCFDF (not fully specified (bridges); cysteine pairing not given here) [ACE-2 binding polypeptide DDKCFGWAHFCFDF]
binds	NDYCTVFTGALFCLDF (disulfide 4-13 (inferred); not fully specified (N-terminus, C-terminus)) [ACE-2 binding polypeptide NDYCTVFTGALFCLDF]
binds	LHDCFIYADYEYCFDF (not fully specified (bridges); cysteine pairing not given here) [ACE-2 binding polypeptide LHDCFIYADYEYCFDF]
binds	DDDCGWIGFANFHLCLHG (not fully specified (N-terminus, C-terminus, bridges); cysteine pairing not given here) [ACE-2 binding polypeptide DDDCGWIGFANFHLCLHG]
